Measured values as given in patent publication US20230212319A1, “NOVEL ANTIGEN BINDING DOMAINS AND SYNTHETIC ANTIGEN RECEPTORS INCORPORATING THE SAME” (University of Southern California, priority 2020, published 2023).

System: RAJI cells
Assay: JNG assay, co-culture with RAJI cells
Assay type: cell-based
Settings: JNG cells expressing construct, co-culture with Raji
Summary of the method: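 Jurkat NFAT-GFP (JNG) cells stably transduced with SARs by lentivirus, with drug selection where the construct carried a resistance gene, then co-cultured with target cells at E:T ~1:2 for ~4–18 h. % GFP-positive cells measured by FACS against parental JNG; +/- to 5+ correspond to ~5–50% GFP-positive.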

B1: 22239 (protein)
chain: MALPVTALLLPLALLLHAARPACPYINIYNAEPANPSEKNSPTQYAYGTGGGGSGGGGSGGGGSEFDIQMTQSPSSLSASVGDRVTITCKASDHINNWLAWYQQKPGQAPKLLIYGATTLETGVPSRFSGSGSGTDYTLTISSLQPEDFATYYCQQSWNTPWTFGQGTKLEIKRLEDLKNVFPPEVAVFEPSEAEISHTQKATLVCLATGFYPDHVELSWWVNGKEVHSGVCTDPQPLKEQPALNDSRYCLSSRLRVSATFWQNPRNHFRCQVQFYGLSENDEWTQDRAKPVTQIVSAEAWGRADCGFTSESYQQGVLSATILYEILLGKATLYAVLVSALVLMAMVKRKDSRGRAKRSGSGATNFSLLKQAGDVEENPGPTSATMDWIWRILFLVGAATGAHSGPQLGPYELWELSHGSGGGGSGGGGSGGGGSFEQVQLQQPGAELVKPGASVKMSCKASGYAFSSYWINWMKQKPGQGLEWIGQIYPGDGDTNYNGKFKGRATLTADTSSSTAYMQLSSLTSEDSAVYFCARSITTVVGCAMDYWGQGTSVTVSSTRIQNPDPAVYQLRDSKSSDKSVCLFTDFDSQTNVSQSKDSDVYITDKCVLDMRSMDFKSNSAVAWSNKSDFACANAFNNSIIPEDTFFPSPESSCDVKLVEKSFETDTNLNFQNLSVIGFRILLLKVAGFNLLMTLRLWSSRAKRSGSGVKQTLNFDLLKLAGDVESNPGPSRGHMTEYKPTVRLATRDDVPRAVRTLAAAFADYPATRHTVDPDRHIERVTELQELFLTRVGLDIGKVWVADDGAAVAVWTTPESVEAGAVFAEIGPRMAELSGSRLAAQQQMEGLLAPHRPKEPAWFLATVGVSPDHQGKGLGSAVVLPGVEAAERAGVPAFLETSAPRNLPFYERLGFTVTADVEVPEGPRTWCMTRKPGA
NFAT-GFP ASSAY: Raji: Raji (+) (refer to approximately 5%, 10%, 20%, 30%, 40% and 50% GFP positive cells)

B2: 22240 (protein)
chain: MALPVTALLLPLALLLHAARPDIQMTQSPSSLSASVGDRVTITCKASDHINNWLAWYQQKPGQAPKLLIYGATTLETGVPSRFSGSGSGTDYTLTISSLQPEDFATYYCQQSWNTPWTFGQGTKLEIKRLEDLKNVFPPEVAVFEPSEAEISHTQKATLVCLATGFYPDHVELSWWVNGKEVHSGVCTDPQPLKEQPALNDSRYCLSSRLRVSATFWQNPRNHFRCQVQFYGLSENDEWTQDRAKPVTQIVSAEAWGRADCGFTSESYQQGVLSATILYEILLGKATLYAVLVSALVLMAMVKRKDSRGRAKRSGSGATNFSLLKQAGDVEENPGPTSATMDWIWRILFLVGAATGAHSGPYINIYNAEPANPSEKNSPSTQYAYGGGSQLGPYELWELSHGSGGSGGGGSGGGGSGGGGSFEQVQLQQPGAELVKPGASVKMSCKASGYAFSSYWINWMKQKPGQGLEWIGQIYPGDGDTNYNGKFKGRATLTADTSSSTAYMQLSSLTSEDSAVYFCARSITTVVGCAMDYWGQGTSVTVSSTRIQNPDPAVYQLRDSKSSDKSVCLFTDFDSQTNVSQSKDSDVYITDKCVLDMRSMDFKSNSAVAWSNKSDFACANAFNNSIIPEDTFFPSPESSCDVKLVEKSFETDTNLNFQNLSVIGFRILLLKVAGFNLLMTLRLWSSRAKRSGSGVKQTLNFDLLKLAGDVESNPGPSRGHMTEYKPTVRLATRDDVPRAVRTLAAAFADYPATRHTVDPDRHIERVTELQELFLTRVGLDIGKVWVADDGAAVAVWTTPESVEAGAVFAEIGPRMAELSGSRLAAQQQMEGLLAPHRPKEPAWFLATVGVSPDHQGKGLGSAVVLPGVEAAERAGVPAFLETSAPRNLPFYERLGFTVTADVEVPEGPRTWCMTRKPGA
NFAT-GFP ASSAY: Raji: Raji (3+) (refer to approximately 5%, 10%, 20%, 30%, 40% and 50% GFP positive cells)
